Experimental data as given in the DeepSol protein solubility set.

Test: soluble on expression in E. coli; label from the status in PepcDB or PDB records

Sequence | soluble on expression in E. coli
MAPQKCFLQIKGMTCASCVSNIERNLQKEAGVLSVLVALMAGKAEIKYDPEVIQPLEIAQFIQDLGFEAAVMEDYAGSDGNIELTITGMTCASCVHNIESKLTRTNGITYASVALATSKALVKFDPEIIGPRDIIKIIEEIGFHASLAQ | soluble
MSHKLPSATDKYYFEVLRNEEKSEMLKFLLESFRVDEPLNRASKISCEEIEKCLDGALDRALKTESSILARSQDTHEIVGCMLNSVWRRDESLCTPGEEDKDFEFHTIRKEVAMVAEILNELHESFWSLRPDQDVVLHFEISSVSVNHRRQGLASKFMNWTENKKFLDTFGATGIATEASSLANQALLAKRGYSTIATTLLDTKVDPDTGKPILVCDDGTDRVNLMFKTF | not soluble
VVTCATDGNHGRSVAWGAQMFGCGCIIYIHRDVSEGRKVAMEAFDAEVIRITGNYDESVRQAGADAKAHGRIIVSDTSYEGYMEVPKDVALGYTVMLAETVEQLDGEIPTHVFVQGGVGGLASAVAGYFWDLWGDRRPRFVVVEPEQANCLQLSAKAGEPVVVKGDLDTLMAGLACGEVSLLAWQILSNGADDFMTLSEDAIADTMSLLAKGYKGDPAIEAGESAVPGLAAAINARAQDTFAKALNLDAQSKVLVIGTEGAT | not soluble
MGSDKIHHHHHHMIWYLEKWRRRWILGRKPIRESVWQSAVDQLPFLHGLTQDEFRQLREWTSIFLHDKKINGVQGLVVTEAMRVMIAVQACLLILKLDPEYYDDWVEVIVYPGKFILDHAYTDETGIVHTRRMVASGESWQAGPVILSWEDVVHVHHESGYNVVIHEFAHKLDMLNGSANGYPPLHSDMDPRIWAVVFSRAYEIFCRQVERGEVTIMDPYAAEDPAEFFAVSSEVFFTRPYRIKQYFPEMYQQLARYYRQDPAARQECETDS | not soluble
MSLDLISFSVPGNLLLMGEYTILEEKGLGLAIAINKRAFFSFKKSDSWRFFSKKKKIDDFSLIENRSDFVFKMFAYLSQNCFFNLENFAYDVYIDTSNFFFNDGTKKGFGSSAVVAIGIVCGLFLIHNATNVVEKGEIFKYCLEAYRYSQGGIGSGYDIATSIFGGVIEFEGGFNPKCRQLGAVEFNDFYLMQGLQAIKTTTSICEYNKHRNSILDFILKCNLEMKKLVLNASNSKSALISSLRRAKELGLAIGEAIGVSAALPSSFDHLLGQCDLIKALGAGNETFLVYRPNIEAFNLSKIISIVLENEGIKFESDKEGHHHHHH | not soluble
MDPLLTLLYIRHTLTSPWSSSEERDTAKAAMMEEMEKHNMAPYIRLVCEALGVPLDESKLAEMDAINAKKVAAFDARLKDAVDNLGDTEVRDVLQAKCDHYARIGDLEMCMKTNEECAAKTLATGPKLDLYFQRIRLGIAFSDNDIAAKGITDAHRLMKDGDWERRNRLRVYEGIYHVFIRDFQRGSTLLLDSITTFAAGELLTFQDFVFITVVASLPVLSRPELRKRIVYSPEVNRTGVDDVRELVNSIYDCQYNKVFPNLEVVCQHLRKVVYLSPHVSYFFREMRVLIFTQFLDSYSSVTLESMGAAFGIPVPALDSMLCTLISNERIACKVDRVDGSVETYRGDTTNFDYHRIVKSGDLLLNRIQKLSRLVDM | not soluble
LKVLTNKASVMLFMKGNKQEAKCGFSKQILEILNSTGVEYETFDILEDEEVRQGLKTFSNWPTYPQLYVRGDLVGGLDIVKELKDNGELLPILKGE | soluble
AHHHHHHGSGEKRKTRQAEVNIGMVGHVDHGKTTLTKALTGVWTDTHSEELRRGITIKIGFADAEIRRCSNCGRYSTSPICPYCGHETEFIRRVSFIDSPGHEALMTTMLAGASLMDGAILVIAANEPCPRPQTREHLMALQIIGQKNIIIAQNKIELVDKEKALENYRQIKEFIKGTVAENAPIIPISALHGANIDVLVKAIEEFIPTPKRDSNKPPKMLVLRSFDVNKPGTPPEKLVGGVLGGSIVQGKLKVGDEIEIRPGVPYEEHGRIKYEPITTEIVSLQAGGQFVEEAYPGGLVGIGTKLDPYLTKGDLMAGNVVGKPGKLPPVWTDLRLEVHLLERVVGTEQELNVEPIKRKEVLLLNVGTARTMGLVTALGKDEIELKLQIPVCAEPGERVAISRQIGSRWRLIGYGIIKE | not soluble
MGSDKIHHHHHHAQTCGATYITEFQYDLKKRTNWCNLLRLDAYVPIGTKGILEFASIHVYKTRPERIINDLQTFSNIEEDNLPCAIAVLGYTRLVGNVTLFAGIRNLNEDYFTTPCMSLFTNSSCGIFPTLSANYPIANYPLAALCLDYKMTLGRFGIESSLYNGKGYNGWSKGKHPFTFNPRKDGVFSITEINYQTEYGKCFGGFSLHTNGDMPDVAGEWKTREREKKVSPKMTFAWWGYAERKLWSRVRQEVNLLVQYTRTSSVFSECRNYMGAGVTWIYVPGGQKRHEAGLFLSAAQFKSCNEVAGEVTYRYSFNRDTYIQPAIHLIKNGGGLHEVFLIRMGYILNGGRVR | not soluble
MVDTHKLADDVLQLLDNRIEDNYRVCVILVGSPGSGKSTIAEELCQIINEKYHTFLSEHPNVIEVNDRLKPMVNLVDSLKTLQPNKVAEMIENQGLFKDHVEDVNFQPVKYSALTSNNEECTAVVARGGTANAIRIAAVDNPVNVNKLAQDSINIAQIVPMDGFHLSRRCLDLFKDPQTAHKRRGSPSTFDSNNFLQLCKILAKTSLCKVSSHHKFYSTSSVFEKLSKTFSQTIPDIFVPGFNHALKDPTPDQYCISKFTRIVILEGLYLLYDQENWKKIYKTLADTGALLVYKIDIDYEATEERVAKRHLQSGLVTTIAEGREKFRSNDLLNGRDIDNHLIKVDNIVHIRNDHHHHHH | soluble
MQKLKQQVFDANMDLPRYGLVTFTWGNVSAIDRERGLVVIKPSGVAYETMKVDDMVVVDMDGKVVEGRYRPSSDTATHLALYQRYPSLGGVVHTHSTHATAWAQAGMAIPALGTTHADYFFGDIPCTRALSEEEVQGEYELNTGKVIIETLGEVEPLHTPGIVVYQHGPFAWGKDAHDAVHNAVVMEEVARMAWIARGINPALNPIDDYLMNKHFMRKHGPNAYYGQK | not soluble
MGSDKIHHHHHHMFNEDTKFASPYEINVLNELTGKNFQEDDLILLEKLSGMDYRKRVYVSEDQIGTLEFDLLDLTWKFIPSPLYYMIEDPKISLKYTKKRLKGKYIKEELLENPEELNEALKDNFEYIGVKIGDFLGVGVRKEDRVKVKDLSRKKELDFQKIADYLEYNKEYLDEMVENSIEILQDAVEKYKRKGYAINASFSGGKDSAVCTLISKEVIPDLDVVFIDTGLEYPETLNYVKDFVDKYDINLDTVDGDNFWDNLEKEGIPTKDNRWCNSACKLMPLKRYLKKKYGNKKVLTIDGSRKYESFTRANLDYERRSGFIDFQTNVFPILDWNSIDIWSYIYSKDIPYNPMYDKGFERIGCYLCPSALNSEFLRVKELHPDYFERWVKYLKKYFPESEVLRGFWRWDELPPKMVELEENMGVDIDKKKRLKRITQL | not soluble
MQVKILDTTLRDGEQTPGVSLSVEQKVMIAEALDNLGVDIIEAGTAIASEGDFQAIKEISQRGLNAEICSFARIKREDIDAAADAGAESIFMVAPSSDIHINAKFPGKDRDYVIEKSVEAIEYAKERGLIVEFGAEDASRADLDFVIQLFKRAEEAKADRITFADTVGVLSPEKMEEIVRKIKAKVKLPLAIHCHDDFGLATANTIFGIKAGAEEFHGTINGLGERAGNAAIEEVVIALEYLYGIKTKIKKERLYNTSKLVEKLSRVVVPPNKPIVGDNAFTHESGIHTSALFRDAKSYEPISPEVVGRKRVIVLGKHAGRASVEAIMNELGYKATPEQMKEILARIKEIGDKGKRVTDADVRTIIETVLQIKREKKVKLEDLAIFSGKNVMPMASVKLKIDGQERIEAAVGLGPVDAAINAIRRAIKEFADIKLVSYHVDAITGGTDALVDVVVQLKKDNKIVTARGARTDIIMASVEAFIEGINMLF | not soluble
MKVIETNFTDAKLLEPRLFGDDRGFFTESYNKKVLETLGVTHSFVQDNVSYSAEAGTIRGLHFQKNPKAQTKLIQVMQGAIYDVIVDLRKDSPTFKQWRGYILSADNHRQLLVPKGFAHGFCTLVPHTIVMYKVDEYYSADHDSGVLWNDKELAIPWPVTSPILSDKDRILPLLQECEDSF | not soluble
MSRDRPNKIKLPHRPGYTTYLQTGDLTSTDGEEGVYSLKLITGYTREEPEILDDVLDPSGGSSSSQRSNDPLLPASTNHPEIFDDVLDPSGGSSSSQRSNDPLLPASTFKLSCVDCKKQYNVSKSMKSQARKRKIRQDMEAEDDMLDGTGLHRMALVNVNTTMPQEAKALEELSKKLVISATLTGYDSVPINTPSKSPQVLYFQVKTHAEFDLVQEKMDKNFISQLEIESLVKSNEPFLFPYGRRRHVFTSILLATYLSLCSDEANNIDDWKDLLRNNAIIKKAVEHSDTMQKMKKYLSVDGRTMLNFYKETL | not soluble
METYDLVIIGGGINGAGIARDAAGRGLSVLLCEKDDLASHTSSASTKLIHGGLRYLEYYEFGLVRKALQEREVLLKAAPHIIWPLRFVMPHARDQRPEWMIRAGLFLYDHLAKREVLPGSETVSFARHPSGAPLKDAFKRGFVYSDGWVQDARLVVLNAMDAAEHGAKIHVRTACVAARRDGEHWLATLEREDGSRFEVRARALVNAAGPWVQSLIEDKLAMPSSKSIRLVKGSHIVVKKIFDHPFAYIFQNPDKRIIFAIPYEKDFTLIGTTDVEYHGDPAQVAIDGDEINYLCEMSNRYFHSQITPADVLSTYSGVRPLLDDASDNASSVTRDYALEMDLKGAPLLSVFGGKITTFRKLAEEAVDKIAPLLGCGQATWTAGAPLPGGDMPGADFGRFLQGLRQRHPWLPEALAERWARAYGTRVGKLIGKADSLAGLGKEVLPGLYEAELAYLADAEWATRSEDILWRRSKLKLHLPANAAEVVDAWLAARAQPPREALSALEHHHHHH | not soluble
MGSDKIHHHHHHMRNRREVSKLLSERVLLLDGAYGTEFMKYGYDDLPEELNIKAPDVVLKVHRSYIESGSDVILTNTFGATRMKLRKHGLEDKLDPIVRNAVRIARRAAGEKLVFGDIGPTGELPYPLGSTLFEEFYENFRETVEIMVEEGVDGIIFETFSDILELKAAVLAAREVSRDVFLIAHMTFDEKGRSLTGTDPANFAITFDELDIDALGINCSLGPEEILPIFQELSQYTDKFLVVEPNAGKPIVENGKTVYPLKPHDFAVHIDSYYELGVNIFGGCCGTTPEHVKLFRKVLGNRKPLQRKKKRIFAVSSPSKLVTFDHFVVIGERINPAGRKKLWAEMQKGNEEIVIKEAKTQVEKGAEVLDVNFGIESQIDVRYVEKIVQTLPYVSNVPLSLDIQNVDLTERALRAYPGRSLFNSAKVDEEELEMKINLLKKYGGTLIVLLMGKDVPKSFEERKEYFEKALKILERHDFSDRVIFDPGVLPLGAEGKPVEVLKTIEFISSKGFNTTVGLSNLSFGLPDRSYYNTAFLVLGISKGLSSAIMNPLDETLMKTLNATLVILEKKELPRAEVKEEKLVEIILSGNRSELEKLVEDFLKEKDPLSVIEEHLRPAMERIGELYDKGKIFLPQLILAAQTVKPVFDKLTSMLPSDSQGETFVIATVKGDVHDIGKNIVASVIRSSGYRVVDLGKDVDTSEIVEAVEKERPVALGLSAMMTTTVGRIKEVVEKLKEKNLKIPVIVGGASLNEKLAKELGADYYAKNASEAVKILKSLGR | not soluble
MSFRFLILLLLASTLLVNSFPIGKDNESDESEVEVDTTTEAENIEVESQEASLDEQLNEVSEDPTREKRGLYSSERTEEEVEISHGMHHREKRHSEHLPHPDPPSHTAKRSTEHHRVKRSEGHPHEKKATHSPEGHIVAKDDHHGHEKRSSDSHHGHQKRSVDEHHGHQKKNAEDHHEHQKRSEHVEHQAEMHEHQKRSTQEVSGHPEHHLVKRSGGEGGHRHHRSTDQGLDEDEPEDEIQTDENDEVTEEPGSRKRRNTDTPMPSFPSDHDSEHSNSVAIRVKRVSRAGSSHKVRTLNKNRGNSKAGETTQNDSLTPNSGGVFNS | not soluble
